The source of these data is paper PMC6536551, “The viral protein corona directs viral pathogenesis and amyloid aggregation” (Nature Communications, 2019).

This data set deals with the molecule itself. The experiment in a line: thioflavin-T fluorescence.

B1: NNFGAIL peptide (model amyloidogenic peptide derived from islet amyloid polypeptide, IAPP) (peptide)
peptide: NNFGAIL
notes: […]; text and methods print NNFGAIL; source: synthetic peptide (Pepscan)
As to B1, the binding result is listed as “binds”.
